The values below come from paper PMC10216903, “Implication of the Transmembrane Domain in the Interleukin 10 Receptor Platform Oligomerisation” (Cells, 2023).

B1: IL-10Rα, full-length subunit of the interleukin 10 receptor (receptor, UniProt Q61727 17-575, looked up)
chain: LEFIAYGTELPSPSYVWFEARFFQHILHWKPIPNQSESTYYEVALKQYGNSTWNDIHICRKAQALSCDLTTFTLDLYHRSYGYRARVRAVDNSQYSNWTTTETRFTVDEVILTVDSVTLKAMDGIIYGTIHPPRPTITPAGDEYEQVFKDLRVYKISIRKFSELKNATKRVKQETFTLTVPIGVRKFCVKVLPRLESRINKAEWSEEQCLLITTEQYFTVTNLSILVISMLLFCGILVCLVLQWYIRHPGKLPTVLVFKKPHDFFPANPLCPETPDAIHIVDLEVFPKVSLELRDSVLHGSTDSGFGSGKPSLQTEESQFLLPGSHPQIQGTLGKEESPGLQATCGDNTDSGICLQEPGLHSSMGPAWKQQLGYTHQDQDDSDVNLVQNSPGQPKYTQDASALGHVCLLEPKAPEEKDQVMVTFQGYQKQTRWKAEAAGPAECLDEEIPLTDAFDPELGVHLQDDLAWPPPALAAGYLKQESQGMASAPPGTPSRQWNQLTEEWSLLGVVSCEDLSIESWRFAHKLDPLDCGAAPGGLLDSLGSNLVTLPLISSLQVEE
notes: Interleukin 10 receptor subunit alpha, full length; One tag per copy: Rluc fusion as donor, eYFP fusion as acceptor (plasmids pRL-CMV and pEYFP-N1); also called IL-10Rα_FL; full-length IL-10Rα; source: HEK293, transfected, in living cells
B2: IL-10Rβ, full-length subunit of the interleukin 10 receptor (receptor, UniProt Q61190 20-349, looked up)
chain: MIPPPEKVRMNSVNFKNILQWEVPAFPKTNLTFTAQYESYRSFQDHCKRTASTQCDFSHLSKYGDYTVRVRAELADEHSEWVNVTFCPVEDTIIGPPEMQIESLAESLHLRFSAPQIENEPETWTLKNIYDSWAYRVQYWKNGTNEKFQVVSPYDSEVLRNLEPWTTYCIQVQGFLLDQNRTGEWSEPICERTGNDEITPSWIVAIILIVSVLVVFLFLLGCFVVLWLIYKKTKHTFRSGTSLPQHLKEFLGHPHHSTFLLFSFPPPEEAEVFDKLSIISEESEGSKQSPEDNCASEPPSDPGPRELESKDEAPSPPHDDPKLLTSTSEV
notes: Interleukin 10 receptor subunit beta, full length; One tag per copy: Rluc fusion as donor, eYFP fusion as acceptor; also called IL-10Rβ_FL; full-length IL-10Rβ; source: HEK293, transfected, in living cells

One data set has as its target TM sequence of IL-10Rα. Put plainly: FRET or BRET; BRET saturation assay in living HEK293 cells; TM sequence fused to Rluc (plasmid constant, 0.75 ng/mL) with increasing eYFP-fused TM sequence plasmid, wild type or mutant; HBSS, coelenterazine H 5 µM, 37 °C. On the technique in general: In BRET a luciferase serves as donor, and the signal depends on an acceptor being close.

Another data set has as its target TM sequence of IL-10Rβ. Described as above.
For data set [1], the target named is IL-10Rβ, full-length subunit of the interleukin 10 receptor (UniProt Q61190). Description: FRET or BRET; BRET saturation assay in living HEK293 cells; full-length Rluc-tagged receptor (plasmid constant, 0.75 ng/mL) with increasing eYFP-tagged TM sequence plasmid; HBSS, coelenterazine H 5 µM, 37 °C.
In data set [2] the target is IL-10Rα, full-length subunit of the interleukin 10 receptor (UniProt Q61727). Described as above.
Data set [3] deals with the molecule itself. Description: FRET or BRET; BRET saturation assay in living HEK293 cells; full-length Rluc donor (plasmid constant, 0.75 ng/mL) with increasing full-length eYFP acceptor plasmid; HBSS, coelenterazine H 5 µM, 37 °C.
The target of data set [4] is B2. Described as above. The conditions noted are these: partners not purified.
For data set [5], the target named is B1. The description is as above. The conditions noted are these: partners not purified.

As to “TM sequence of IL-10Rα (domain or fragment)”, the BRET50 in the data set with TM sequence of IL-10Rα is 190 mBu; with TM sequence of IL-10Rβ, 109 mBu; in data set [1], 22 mBu; in data set [2] it was 28 mBu.

Consider “TM sequence of IL-10Rβ (domain or fragment)”, for which the BRET50 with TM sequence of IL-10Rα came to 141 mBu; with TM sequence of IL-10Rβ it was 78 mBu; in data set [1] it was 35 mBu; in data set [2] it was 35 mBu.

“TM sequence of IL-10Rα with leucine 248 substituted by glycine (domain or fragment)”: in the data set with TM sequence of IL-10Rα, the decrease of BRET50 against the wild-type TM homodimer was determined as 27 % decrease.

B1: the BRET50 in data set [3] and in data set [4] was 28 mBu each time.

With B2, the results for the BRET50 in data set [3] and in data set [5] were 152 mBu and 86 mBu, respectively.
